Four molecules from patent US20180030434A1 (Genentech, published 2018) can be followed below.

One assay addresses T1, human VEGF (8-109) (human, UniProt P15692 214-315, ALEXA FLUOR 488 or ALEXA FLUOR 647 succinimidyl ester label in the flow cytometry experiments).
T1 construct: range 8-109; The SPR section says only 'human VEGF'; also called VEGF antigen
T1 sequence (looked up): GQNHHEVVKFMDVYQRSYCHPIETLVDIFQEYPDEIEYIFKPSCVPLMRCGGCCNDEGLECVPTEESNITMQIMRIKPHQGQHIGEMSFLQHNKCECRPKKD
Briefly: flow cytometry (SSC against labeled VEGF) of the anti-VEGF spiking experiment, bacterial antibody display; no unstained control is drawn in these panels.

Assay [1] has as its target T2, Unizyme-tagged human IL-13 (33-146) (human, UniProt P35225 33-146, ALEXA FLUOR 488 or ALEXA FLUOR 647 succinimidyl ester label in the staining and flow cytometry experiments).
T2 construct: range 33-146; The SPR section says only 'Human IL-13'; also called huIL-13; IL-13 antigen; not shown: Unizyme tag
Kind of assay: SPR (Biacore 3000), half-antibody from E. coli periplasmic extract captured by Fab Binder, human IL-13 as analyte, 25 C. (In general: SPR reads the build-up and loss of mass on a sensor chip optically.)

T2 sequence (P35225 33-146, form in doubt): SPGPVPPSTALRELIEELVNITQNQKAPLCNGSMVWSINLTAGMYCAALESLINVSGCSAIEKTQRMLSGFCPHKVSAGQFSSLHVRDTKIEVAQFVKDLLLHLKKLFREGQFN
Experimental for human VEGF (8-109): For bacterial display, antibodies were expressed in a Lpp deletion (Δlpp) of strain 62A7. […] After 24 hours at 30° C., 1 OD aliquots were harvested and pelleted by centrifugation (4 minutes, 6500 rcf). Cells were resuspended in 100 μL PBS pH 7.4 with 2% BSA and 5 mM EDTA and incubated at 4° C. for 30 minutes. After initial incubation, SYTO® 41 or 9 nucleic acid stain (Molecular Probes, USA) was added to a final dilution of 1:100, and ALEXA⁴⁶⁸- or ALEXA⁶⁴⁷-labeled antigen added to a final concentration of 1-2 μM. Incubation was continued at 4° C. in darkness for 1 hour, at which time MgCl₂ was added to 10-20 mM final concentration. Unbound proteins were removed by washing 3 times with 1 mL volumes of PBS pH 7.4+20 mM MgCl₂. […] The FACS™ gating strategy included cells that were SYTO® dye-positive. Doublet discrimination gates were used to remove doublets and finally antigen-positive cells were sorted.

B1: anti-IL-13 half-antibody WT (antibody, V domains shown)
VH: QVTLRESGPALVKPTQTLTLTCTVSGFSLSAYSVNWIRQPPGKALEWLAMIWGDGKIVYNSALKSRLTISKDTSKNQVVLTMTNMDPVDTATYYCAGDGYYPYAMDNWGQGSLVTVSS
VL: DIVMTQSPDSLSVSLGERATINCRASKSVDSYGNSFMHWYQQKPGQPPKLLIYLASNLESGVPDRFSGSGSGTDFTLTISSLQAEDVAVYYCQQNNEDPRTFGGGTKVEIK
notes: Half-antibody (one heavy and one light chain, knobs-into-holes Fc); Expressed in the E. coli periplasm; for SPR captured from periplasmic extract; also called anti-IL-13 WT; Half-Ab
In general, Kd refers to the constant that tells how readily two partners part at equilibrium. A low value points to a tighter complex. As a reminder, the koff is a measure of how fast the partners let go of each other. The term kon denotes the rate constant with which the complex forms. Read a low kon as slower complex formation. As for B1, the binding result with human VEGF (8-109) is on record as “no binding”. In assay [1], this molecule displayed a Kd of 0.04 nM, a koff of 5.09e-05 s⁻¹ and a kon of 1.3e+06 M⁻¹ s⁻¹.

B2: anti-IL-13 half-antibody framework variant F27L (heavy chain) (antibody, name in Kabat numbering, V domains shown)
VH: QVTLRESGPALVKPTQTLTLTCTVSGLSLSAYSVNWIRQPPGKALEWLAMIWGDGKIVYNSALKSRLTISKDTSKNQVVLTMTNMDPVDTATYYCAGDGYYPYAMDNWGQGSLVTVSS
VL: DIVMTQSPDSLSVSLGERATINCRASKSVDSYGNSFMHWYQQKPGQPPKLLIYLASNLESGVPDRFSGSGSGTDFTLTISSLQAEDVAVYYCQQNNEDPRTFGGGTKVEIK
notes: Half-antibody
For B2, in assay [1], the Kd came to 0.034 nM, the koff is 4.43e-05 s⁻¹ and the kon was 1.3e+06 M⁻¹ s⁻¹.

B3: anti-IL-13 half-antibody framework variant M4L (light chain) (antibody, name in Kabat numbering, V domains shown)
VH: QVTLRESGPALVKPTQTLTLTCTVSGFSLSAYSVNWIRQPPGKALEWLAMIWGDGKIVYNSALKSRLTISKDTSKNQVVLTMTNMDPVDTATYYCAGDGYYPYAMDNWGQGSLVTVSS
VL: DIVLTQSPDSLSVSLGERATINCRASKSVDSYGNSFMHWYQQKPGQPPKLLIYLASNLESGVPDRFSGSGSGTDFTLTISSLQAEDVAVYYCQQNNEDPRTFGGGTKVEIK
notes: Half-antibody
In assay [1], B3 displayed a Kd of 0.029 nM, a koff of 3.16e-05 s⁻¹ and a kon of 1.11e+06 M⁻¹ s⁻¹.

B4: anti-IL-13 half-antibody framework variant E6Q (heavy chain) (antibody, name in Kabat numbering, V domains shown)
VH: QVTLRQSGPALVKPTQTLTLTCTVSGFSLSAYSVNWIRQPPGKALEWLAMIWGDGKIVYNSALKSRLTISKDTSKNQVVLTMTNMDPVDTATYYCAGDGYYPYAMDNWGQGSLVTVSS
VL: DIVMTQSPDSLSVSLGERATINCRASKSVDSYGNSFMHWYQQKPGQPPKLLIYLASNLESGVPDRFSGSGSGTDFTLTISSLQAEDVAVYYCQQNNEDPRTFGGGTKVEIK
notes: Half-antibody
In the case of B4, in assay [1], the Kd is 0.038 nM, the koff is 4.26e-05 s⁻¹ and the kon came out at 1.13e+06 M⁻¹ s⁻¹.
